According to paper PMC4283134, “Nup98 FG domains from diverse species spontaneously phase-separate into particles with nuclear pore-like permselectivity” (eLife, 2015):

B1: Drosophila melanogaster Nup98 FG domain (domain or fragment)
chain: MFGGAKPSFGATPAATSFGGFSGTTTTTPFGQSAFGKPAAPAFGNTSTFAAQPAQQSLFGAAATPAQPAGGLFGANTSTGFGSTATAQPTAFGAFSQPQQTSNIFGSTQTAASTSLFGQSTLPAFGAAKPTMTAFGQTAAAQPTGSLFGQPAAATSTTGFGGFGTSAPTTTNVFGSGTASAFAQPQATAVGASGVNTGTAVAKYQPTIGTDTLMKSGQANSVNTKQHCITAMKEFEGKSLEELRLEDYMCGRKGPQAGNAPGAFGFGAQVTQPAQPASGGLFGSTAQPSTGLFGQTVTENKSMFGTTAFGQQPATNNAFGAATQQNNFLQKPFGATTTTPFAAPAADASNPFGAKPAFGQGGSLFGQAPATSAAPAFGQTNTGFGGFGTTAGATQQSTLFGATPAADPNKSAFGLGTAASAATTGFGFGAPATSTAGGGLFGNKPATSFAAPTFGATSTASTPFSNFGLNTSTAATGGGLFNSGLNKPATSGFGGFGATSAAPLNFNAGNTGGSLFGNTAKPGGGLFGGGTTTLGGTGAAPTGGLFGGGTTSFGGVGGSLGGGGFGMGTNNSLTGGIMGAC
notes: Nup98 FG domain, Drosophila melanogaster, residues 1-580; engineered C-terminal cysteine; In particle assays a few percent of the molecules carried a fluorescent tracer label; also called DmNup98 FG; DmNup98; source: E. coli (BLR or NEB Express), purified (Ni(II) chelate, denaturing conditions); not shown: His18, N-terminal, kept
B2: Saccharomyces cerevisiae Nup116 FG domain without the GLEBS domain (domain or fragment, S. cerevisiae)
chain: FGVSRGAFPSATTQPFGSTGSTFGGQQQQQQPVANTSAFGLSQQTNTTQAPAFGNFGNQTSNSPFGMSGSTTANGTPFGQSQLTNNNASGSIFGGMGNNTALSAGSASFGTSQNGTGTTFNNPQGTTNTGFGIMGNNNSTTSATTGGLFGQKPATGMFGTGTGSGGGFGSGATNSTGLFGSSTNLSGNSAFGANKPATSGGLFGNTTNNPTNGTNNTGLFGQQNSNTNGGLFGQQQNSFGANNVSNGGAFGQVNRGAFPQQQTQQGSGGIFGQSNANANGGAFGQQQGTGALFGAKPASGGLFGQSAGSKAFGMNTNPTGTTGGLFGQTNQQQSGGGLFGQQQNSNAGGLFGQNNQSQNQSGLFGQQNSSNAFGQPQQQGGLFGSKPAGGLFGQQQGASTFASGNAQNNSIFGQNNQQQQSTGGLFGQQNNQSQSQPGGLFGQTNQNNNQPFGQNGLQQPQQNNSLFGAKPTGFGNTSLFSNSTTNQSNGISGNNLQQQSGGLFQNKQQPASGGLFGSKPSNTVGGGLFGNNQVANQNNPASTSGGLFGSKPATGSLFGGTNSTAPNASSGGIFGSNNASNTAATTNSTGLFGNKPVGAGASTSAGGLFGNNNNSSLNNSNGSTGLFGSNNTSQSTNAGGLFQNNTSTNTSGGGLFSC
notes: Nup116 FG domain, S. cerevisiae, residues 2-109 joined to 167-715 (GLEBS domain deleted); engineered C-terminal cysteine; In particle assays a few percent of the molecules carried a fluorescent tracer label; also called ScNup116_(ΔGLEBS) FG; ScNup116; source: E. coli (BLR or NEB Express), purified (Ni(II) chelate, denaturing conditions); not shown: His18, N-terminal, kept
B3: Homo sapiens Nup98 FG domain (domain or fragment, human)
chain: MFNKSFGTPFGGGTGGFGTTSTFGQNTGFGTTSGGAFGTSAFGSSNNTGGLFGNSQTKPGGLFGTSSFSQPATSTSTGFGFGTSTGTANTLFGTASTGTSLFSSQNNAFAQNKPTGFGNFGTSTSSGGLFGTTNTTSNPFGSTSGSLFGPSSFTAAPTGTTIKFNPPTGTDTMVKAGVSTNISTKHQCITAMKEYESKSLEELRLEDYQANRKGPQNQVGAGTTTGLFGSSPATSSATGLFSSSTTNSGFAYGQNKTAFGTSTTGFGTNPGGLFGQQNQQTTSLFSKPFGQATTTQNTGFSFGNTSTIGQPSTNTMGLFGVTQASQPGGLFGTATNTSTGTAFGTGTGLFGQTNTGFGAVGSTLFGNNKLTTFGSSTTSAPSFGTTSGGLFGNKPTLTLGTNTNTSNFGFGTNTSGNSIFGSKPAPGTLGTGLGAGFGTALGAGQASLFGNNQPKIGGPLGTGAFGAPGFNTTTATLGFGAPQAPVALTDPNASAAQQAC
notes: Nup98 FG domain, human, residues 1-499; engineered C-terminal cysteine; In particle assays a few percent of the molecules carried a fluorescent tracer label; also called HsNup98 FG; HsNup98; source: E. coli (BLR or NEB Express), purified (Ni(II) chelate, denaturing conditions); not shown: His18, N-terminal, kept
B4: Arabidopsis thaliana Nup98B FG domain (domain or fragment)
chain: MFGSSNNNPFGQSSISSPFGTQTHSLFGQTNNNASNNPFATKPFGTSTPFGAQTGSSMFGGTSTGVFGAPQTSSPFGASPQAFGSSTQAFGASSTPSFGSSNSPFGGTSTFGQKSFGLSTPQSSPFGSTTQQSQPAFGNSTFGSSTPFGASTTPAFGASSTPAFGVSNTSGFGATNTPGFGATNTTGFGGSSTPGFGASSTPAFGSTNTPAFGASSTPLFGSSSSPAFGASPAPAFGSSGNAFGNNTFSSGGAFGSSSTPTFGASNTSAFGASSSPSFNFGSSPAFGQSTSAFGSSSFGSTQSSLGSTPSPFGAQGAQASTSTFGGQSTIGGQQGGSRVIPYAPTTDTASGTESKSERLQSISAMPAHKGKNMEELRWEDYQRGDKGGQRSTGQSPEGAGFGVTNSQPSIFSTSPAFSQTPVNPTNPFSQTTPTSNTNFSPSFSQPTTPSFGQPTTPSFRSTVSNTTSVFGSSSSLTTNTSQPLGSSIFGSTPAHGSTPGFSIGGFNNSQSSPLFGSNPSFAQNTTPAFSQTSPLFGQNTTPALGQSSSVFGQNTNPALVQSNTFSTPSTGFGNTFSSSSSLTTSISPFGQITPAVTPFQSAQPTQPLGAFGFNNFGQTQIANTTDIAGAMGTFSQGNFKQQPALGNSAVMQPTPVTNPFGTLPALPQC
notes: Nup98B FG domain, Arabidopsis thaliana, residues 1-668; engineered C-terminal cysteine; In particle assays a few percent of the molecules carried a fluorescent tracer label; also called AtNup98B FG; AtNup98B; source: E. coli (BLR or NEB Express), purified (Ni(II) chelate, denaturing conditions); not shown: His14 (with TEV site), N-terminal, kept
B5: Saccharomyces cerevisiae Nup100 FG domain (residues 2-580, purified) (domain or fragment, S. cerevisiae)
chain: FGNNRPMFGGSNLSFGSNTSSFGGQQSQQPNSLFGNSNNNNNSTSNNAQSGFGGFTSAAGSNSNSLFGNNNTQNNGAFGQSMGATQNSPFGSLNSSNASNGNTFGGSSSMGSFGGNTNNAFNNNSNSTNSPFGFNKPNTGGTLFGSQNNNSAGTSSLFGGQSTSTTGTFGNTGSSFGTGLNGNGSNIFGAGNNSQSNTTGSLFGNQQSSAFGTNNQQGSLFGQQSQNTNNAFGNQNQLGGSSFGSKPVGSGSLFGQSNNTLGNTTNNRNGLFGQMNSSNQGSSNSGLFGQNSMNSSTQGVFGQNNNQMQINGNNNNSLFGKANTFSNSASGGLFGQNNQQQGSGLFGQNSQTSGSSGLFGQNNQKQPNTFTQSNTGIGLFGQNNNQQQQSTGLFGAKPAGTTGSLFGGNSSTQPNSLFGTTNVPTSNTQSQQGNSLFGATKLTNMPFGGNPTANQSGSGNSLFGTKPASTTGSLFGNNTASTTVPSTNGLFGNNANNSTSTTNTGLFGAKPDSQSKPALGGGLFGNSNSNSSTIGQNKPVFGGTTQNTGLFGATGTNSSAVGSTGKLFGQNNNTLNVGTC
notes: Nup100 FG domain, S. cerevisiae, residues 2-580; engineered C-terminal cysteine; In particle assays a few percent of the molecules carried a label (Atto390, Atto488 or Alexa488); also called ScNup100 FG; ScNup100; source: E. coli (BLR or NEB Express), purified (Ni(II) chelate, denaturing conditions); not shown: His18, N-terminal, kept
B6: Caenorhabditis elegans NPP-10/Nup98 FG domain (domain or fragment)
chain: MFGQNKSFGSSSFGGGSSGSGLFGQNNQNNQNKGLFGQPANNSGTTGLFGAAQNKPAGSIFGAASNTSSIFGSPQQPQNNQSSLFGGGQNNANRSIFGSTSSAAPASSSLFGNNANNTGTSSIFGSNNNAPSGGGLFGASTVSGTTVKFEPPISSDTMMRNGTTQTISTKHMCISAMSKYDGKSIEELRVEDYIANRKAPGTGTTSTGGGLFGASNTTNQAGSSGLFGSSNAQQKTSLFGGASTSSPFGGNTSTANTGSSLFGNNNANTSAASGSLFGAKPAGSSLFGSTATTGASTFGQTTGSSLFGNQQPQTNTGGSLFGNTQNQNQSGSLFGNTGTTGTGLFGQAQQQPQQQSSGFSFGGAPAATNAFGQPAAANTGGSLFGNTSTANTGSSLFGAKPATSTGFTFGATQPTTTNAFGSTNTGGGLFGNNAAKPGGLFGNTTNTGTGGGLFGSQPQASSGGLFGSNTQATQPLNTGFGNLAQPQIVMQQQC
notes: NPP-10/Nup98 FG domain, Caenorhabditis elegans, residues 1-493; engineered C-terminal cysteine; In particle assays a few percent of the molecules carried a fluorescent tracer label; also called CeNup98 FG; CeNup98; source: E. coli (BLR or NEB Express), purified (Ni(II) chelate, denaturing conditions); not shown: His18, N-terminal, kept

How the values were obtained:
[1] = target: Trypanosoma brucei Nup158 FG domain (Trypanosoma brucei); experiment: dynamic light scattering; FG domain diluted from stocks in 2 M GuHCl into TBS (50 mM Tris/HCl pH 7.5, 150 mM NaCl) to 10-0.06 µM; critical concentration of phase separation from the lowest concentration with particles, refined by the monomers that co-exist with particles
[2] = target: Saccharomyces cerevisiae Nup100 FG domain (residues 1-580, FG bodies formed in E. coli) (S. cerevisiae) (UniProt Q02629); experiment: partitioning into FG bodies or inclusion bodies (confocal laser-scanning microscopy); crude FG bodies or actin inclusion bodies from E. coli, washed twice in TBS; 1 µM Impβ•IBB-GFP and MBP-mCherry added
[3] = target: Saccharomyces cerevisiae Nup116 FG domain (residues 1-736, FG bodies formed in E. coli) (S. cerevisiae) (UniProt Q02630); experiment: as above
[4] = target: Saccharomyces cerevisiae Nup100 FG domain (residues 2-580, purified) (S. cerevisiae) (UniProt Q02629); experiment: partitioning into FG particles (confocal laser-scanning microscopy); FG particles formed from 5 or 10 µM purified FG domain (with labelled tracer) by dilution from GuHCl into TBS; 1 µM fluorescent NTR or NTR⋅cargo complex or 3 µM passive probe added; images about 2-3 min later
[5] = target: Branchiostoma floridae Nup98 FG domain (Branchiostoma floridae); experiment: dynamic light scattering; FG domain diluted from stocks in 2 M GuHCl into TBS (50 mM Tris/HCl pH 7.5, 150 mM NaCl) to 10-0.06 µM; critical concentration of phase separation from the lowest concentration with particles, refined by the monomers that co-exist with particles
[6] = target: Tetrahymena thermophila macronuclear MacNup98A FG domain (Tetrahymena thermophila); experiment: as above
[7] = target: Dictyostelium discoideum Nup220 FG domain (Dictyostelium discoideum); experiment: as above
[8] = target: Branchiostoma floridae Nup98 FG domain, O-GlcNAc modified (Branchiostoma floridae); experiment: as above
[9] = target: the molecule itself; experiment: as above
human Importin β = target: T1, human Importin β (human, UniProt Q14974 1-876); experiment: pull-down; His-tagged FG domains (30 µg each) immobilised on 30 µl PEG-passivated Ni(II) chelate beads; 1 µM untagged human Importin β (400 µl), 2 hr at 4°C; 25 mM Tris/HCl pH 7.5, 100 mM NaCl, 1 mM MgCl2, 0.5% PEG4000, 5 mM DTT; SDS-PAGE/Coomassie; conditions: both partners purified
T1 construct: Importin β, human; also called HsImpβ; pICH005; source: E. coli (BLR or NEB Express), purified (native Ni(II) chelate chromatography, tag removed); not shown: His14, N-terminal, cleaved; scSUMO, N-terminal, cleaved
T1 sequence (Q14974 whole entry, the tested form may be a part): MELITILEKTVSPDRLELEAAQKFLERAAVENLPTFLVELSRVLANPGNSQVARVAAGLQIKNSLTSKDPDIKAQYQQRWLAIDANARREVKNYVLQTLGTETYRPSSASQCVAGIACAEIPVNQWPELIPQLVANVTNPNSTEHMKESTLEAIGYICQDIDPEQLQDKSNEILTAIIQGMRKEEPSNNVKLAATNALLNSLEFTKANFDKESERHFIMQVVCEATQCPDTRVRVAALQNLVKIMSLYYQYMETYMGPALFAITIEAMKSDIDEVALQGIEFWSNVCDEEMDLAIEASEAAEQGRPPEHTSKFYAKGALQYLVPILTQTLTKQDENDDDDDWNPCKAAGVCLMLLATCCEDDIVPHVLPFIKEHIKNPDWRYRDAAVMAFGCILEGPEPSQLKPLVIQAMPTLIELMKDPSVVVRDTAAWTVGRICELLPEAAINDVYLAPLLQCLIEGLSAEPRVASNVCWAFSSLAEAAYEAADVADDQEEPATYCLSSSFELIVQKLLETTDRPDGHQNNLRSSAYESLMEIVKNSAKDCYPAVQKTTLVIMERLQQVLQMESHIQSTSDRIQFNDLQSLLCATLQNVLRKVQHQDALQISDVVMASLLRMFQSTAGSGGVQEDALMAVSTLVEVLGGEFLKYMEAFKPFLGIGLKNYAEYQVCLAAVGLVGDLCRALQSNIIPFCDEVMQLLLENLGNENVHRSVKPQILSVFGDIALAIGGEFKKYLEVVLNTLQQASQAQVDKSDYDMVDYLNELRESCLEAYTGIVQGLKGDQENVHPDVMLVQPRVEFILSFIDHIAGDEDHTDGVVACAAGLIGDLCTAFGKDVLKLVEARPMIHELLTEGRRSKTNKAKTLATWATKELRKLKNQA

| Molecule | estimated critical concentration for phase separation (FG domain) [9] [nM] | binding result (human Importin β) | also measured |
| --- | --- | --- | --- |
| Trypanosoma brucei Nup158 FG domain (domain or fragment) |  |  | estimated critical concentration for phase separation (FG domain) [1]: 300 nM |
| Importin β⋅IBB-GFP complex (from UniProt Q06142 1-861; Q02821 2-63) |  |  | particle:buffer partition coefficient [2]: 200; particle:buffer partition coefficient [3]: 200; particle:buffer partition coefficient [4]: 220 |
| Branchiostoma floridae Nup98 FG domain (domain or fragment) |  |  | estimated critical concentration for phase separation (FG domain) [5]: 20 nM |
| Tetrahymena thermophila macronuclear MacNup98A FG domain (domain or fragment) |  |  | estimated critical concentration for phase separation (FG domain) [6]: 25 nM |
| Dictyostelium discoideum Nup220 FG domain (domain or fragment) |  |  | estimated critical concentration for phase separation (FG domain) [7]: 125 nM |
| Branchiostoma floridae Nup98 FG domain, O-GlcNAc modified (domain or fragment) |  |  | estimated critical concentration for phase separation (FG domain) [8]: 150 nM |
| MBP-mCherry fusion |  |  | particle:buffer partition coefficient [4]: < 0.1 |
| B1 | ~200 | binds |  |
| B2 | ~700 |  |  |
| B3 | ~25 | binds |  |
| B4 | ~25 | binds |  |
| B5 | ~175 | binds |  |
| B6 | ~700 | binds |  |
